Data taken from PMC8429438, “DnaJC7 binds natively folded structural elements in tau to inhibit amyloid formation” (Nature Communications, 2021).
Several values for one entry are separate records, joined by “and”; a condition that tells them apart may be missing. Identical values can stand only once.

What was measured:
[1] = biological target: T1, full-length 2N4R wild-type tau (human, UniProt P10636-8 1-441, Cy5 (Cyanine5 NHS ester) label in the MST assays; unlabelled in cross-linking and aggregation assays); assay: MST; WT tau or P301L tau labelled with Cyanine5 NHS ester dye (Cy5) and titrated by a serial two-fold dilution of DnaJC7 domains; n=3; Nanotemper Monolith NT.115; 1:1 binding model; conditions: both partners purified
T1 construct: microtubule-associated protein tau, 2N4R isoform; also called WT tau; WT TAU; source: E. coli BL21 (DE3), pET28b, purified

[2] = biological target: T2, full-length 2N4R P301L tau (human, UniProt P10636-8 1-441, P301L, Cy5 (Cyanine5 NHS ester) label in the MST assays; unlabelled in cross-linking and aggregation assays); assay: as above; conditions: both partners purified
T2 construct: microtubule-associated protein tau, 2N4R isoform, with the frontotemporal dementia disease-associated P301L mutation; source: E. coli BL21 (DE3), pET28b, purified

[3] = biological target: T3, full-length 2N4R wild-type tau (human, UniProt P10636-8 1-441, Cy5 (Cyanine5 NHS ester) label in MST); assay: cell-based or functional assay
[4] = biological target: T3, full-length 2N4R wild-type tau; assay: MST; Cy5-labelled wild-type or mutant tau/tauRD titrated with a serial two-fold dilution of DnaJC7 or single DnaJC7 domains; Monolith NT.115; technical triplicates; fit in PALMIST with a 1:1 binding model; conditions: both partners purified
[5] = biological target: T4, recombinant tau monomer seed (human, UniProt P10636-8 1-441, Cy5 (Cyanine5 NHS ester) label in MST); assay: as above; conditions: both partners purified
T4 construct: Probably made from the full-length 2N4R tau of m5; the methods say only 'wild-type tau'; also called tau monomer seeds; tau seeds; source: wild-type tau from E. coli BL21 (DE3) incubated 1:1 with heparin for 1 h at 37 °C, isolated on Superdex 200

[6] = biological target: T5, full-length 2N4R P301L tau (human, UniProt P10636-8 1-441, P301L, Cy5 (Cyanine5 NHS ester) label in MST); assay: as above; conditions: both partners purified
T5 construct: microtubule-associated protein tau, 2N4R isoform, full length, with the disease-associated P301L mutation; also called full-length P301L tau mutant; source: E. coli BL21 (DE3), pET28b, purified
T5 sequence (P10636 other isoform, or with tags, fused parts or gaps P301L | P301L | P301L P301L): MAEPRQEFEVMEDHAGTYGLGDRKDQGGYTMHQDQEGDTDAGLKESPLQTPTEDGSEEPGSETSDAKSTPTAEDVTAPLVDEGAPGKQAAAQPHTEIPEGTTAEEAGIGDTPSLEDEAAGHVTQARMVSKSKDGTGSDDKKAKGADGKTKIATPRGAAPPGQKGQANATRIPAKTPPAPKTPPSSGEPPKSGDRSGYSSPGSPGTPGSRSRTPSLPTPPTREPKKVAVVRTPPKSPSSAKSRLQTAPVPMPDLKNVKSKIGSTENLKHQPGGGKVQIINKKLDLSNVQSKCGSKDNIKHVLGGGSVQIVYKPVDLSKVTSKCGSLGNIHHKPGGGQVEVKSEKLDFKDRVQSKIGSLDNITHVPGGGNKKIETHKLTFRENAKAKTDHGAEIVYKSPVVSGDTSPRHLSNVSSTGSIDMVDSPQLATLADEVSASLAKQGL

T3 sequence (P10636 other isoform, or with tags, fused parts or gaps): as the sequence (P10636 other isoform, or with tags, fused parts or gaps P301L | P301L | P301L P301L) above, with L301P counted along it
T2 sequence (P10636 other isoform, or with tags, fused parts or gaps P301L | P301L | P301L P301L): as the sequence (P10636 other isoform, or with tags, fused parts or gaps P301L | P301L | P301L P301L) above
T1 sequence (P10636 other isoform, or with tags, fused parts or gaps): as the sequence (P10636 other isoform, or with tags, fused parts or gaps P301L | P301L | P301L P301L) above, with L301P counted along it
T4 sequence (P10636 other isoform, or with tags, fused parts or gaps): as the sequence (P10636 other isoform, or with tags, fused parts or gaps P301L | P301L | P301L P301L) above, with L301P counted along it

B1: DnaJC7 TPR2a domain (141-270) (domain or fragment, UniProt Q99615 141-270, looked up)
chain: AVMEYEKIAETDFEKRDFRKVVFCMDRALEFAPACHRFKILKAECLAMLGRYPEAQSVASDILRMDSTNADALYVRGLCLYYEDCIEKAVQFFVQALRMAPDHEKACIACRNAKALKAKKEDGNKAFKEG
notes: DnaJC7, TPR2a domain, residues 141-270; also called TPR2a_(141-270); not shown: His tag (from the vector pMCSG7)
**Q.** With B1 as the binder, how does the Kd [1] read?
**A.** 202 nM

**Q.** And the Kd [2]?
**A.** 670 nM

B2: DnaJC7 TPR1 domain (20-156) (domain or fragment, UniProt Q99615 20-156, looked up)
chain: DDQEAKREAETFKEQGNAYYAKKDYNEAYNYYTKAIDMCPKNASYYGNRAATLMMLGRFREALGDAQQSVRLDDSFVRGHLREGKCHLSLGNAMAACRSFQRALELDHKNAQAQQEFKNANAVMEYEKIAETDFEKR
notes: DnaJC7, TPR1 domain, residues 20-156; also called TPR1_(20-156); not shown: His tag (from the vector pMCSG7)
**Q.** For B2, which Kd [2] is on record?
**A.** 404 nM

B3: DnaJC7 TPR2b domain (255-370) (domain or fragment, UniProt Q99615 255-370, looked up)
chain: ALKAKKEDGNKAFKEGNYKLAYELYTEALGIDPNNIKTNAKLYCNRGTVNSKLRKLDDAIEDCTNAVKLDDTYIKAYLRRAQCYMDTEQYEEAVRDYEKVYQTEKTKEHKQLLKNA
notes: also called TPR2b_(255-370); TPR2b_(253-370); not shown: His tag (from the vector pMCSG7)
**Q.** B3 was tested. Which Kd [2] did it give?
**A.** 507 nM

B4: DnaJC7 (full-length, wild type, recombinant) (natural protein, UniProt Q99615 1-494, looked up)
chain: MAAAAECDVVMAATEPELLDDQEAKREAETFKEQGNAYYAKKDYNEAYNYYTKAIDMCPKNASYYGNRAATLMMLGRFREALGDAQQSVRLDDSFVRGHLREGKCHLSLGNAMAACRSFQRALELDHKNAQAQQEFKNANAVMEYEKIAETDFEKRDFRKVVFCMDRALEFAPACHRFKILKAECLAMLGRYPEAQSVASDILRMDSTNADALYVRGLCLYYEDCIEKAVQFFVQALRMAPDHEKACIACRNAKALKAKKEDGNKAFKEGNYKLAYELYTEALGIDPNNIKTNAKLYCNRGTVNSKLRKLDDAIEDCTNAVKLDDTYIKAYLRRAQCYMDTEQYEEAVRDYEKVYQTEKTKEHKQLLKNAQLELKKSKRKDYYKILGVDKNASEDEIKKAYRKRALMHHPDRHSGASAEVQKEEEKKFKEVGEAFTILSDPKKKTRYDSGQDLDEEGMNMGDFDPNNIFKAFFGGPGGFSFEASGPGNFFFQFG
notes: DnaJC7, class-C J-domain protein with TPR1, TPR2a, TPR2b and a C-terminal J domain; called full-length DnaJC7; Plasmid was a gift (A. Joachimiak); also called DnaJC7WT; WT DnaJC7
**Q.** Which “ThT fluorescence of 4.4 µM WT tau seeded with 50 nM tau monomer seeds with equimolar DnaJC7WT over 100 h, relative to the seeded tau control” value [3] does the source give for B4 here?
**A.** 20%

**Q.** What about the Kd [4] of the same binder?
**A.** 471 nM and 343 nM

**Q.** And the Kd [5]?
**A.** 15500 ± 2200 nM

B5: DnaJC7_(TPR2b_mut) (full-length DnaJC7 with six alanine mutations in the TPR2b binding groove) (natural protein, UniProt Q99615 1-494, looked up)
chain: MAAAAECDVVMAATEPELLDDQEAKREAETFKEQGNAYYAKKDYNEAYNYYTKAIDMCPKNASYYGNRAATLMMLGRFREALGDAQQSVRLDDSFVRGHLREGKCHLSLGNAMAACRSFQRALELDHKNAQAQQEFKNANAVMEYEKIAETDFEKRDFRKVVFCMDRALEFAPACHRFKILKAECLAMLGRYPEAQSVASDILRMDSTNADALYVRGLCLYYEDCIEKAVQFFVQALRMAPDHEKACIACRNAKALKAKAEDGAKAAAAGNAKLAYELYTEALGIDPNNIKTNAKLYCNRGTVNSKLRKLDDAIEDCTNAVKLDDTYIKAYLRRAQCYMDTEQYEEAVRDYEKVYQTEKTKEHKQLLKNAQLELKKSKRKDYYKILGVDKNASEDEIKKAYRKRALMHHPDRHSGASAEVQKEEEKKFKEVGEAFTILSDPKKKTRYDSGQDLDEEGMNMGDFDPNNIFKAFFGGPGGFSFEASGPGNFFFQFG
notes: also called DnaJC7_(TPR2_mut); source: recombinant from pET29b (NdeI/XhoI)
**Q.** Which Kd [4] does the source give for B5 here?
**A.** 6000 ± 1200 nM

B6: DnaJC7 J domain (JD 380-494) (domain or fragment, UniProt Q99615 380-494, looked up)
chain: KDYYKILGVDKNASEDEIKKAYRKRALMHHPDRHSGASAEVQKEEEKKFKEVGEAFTILSDPKKKTRYDSGQDLDEEGMNMGDFDPNNIFKAFFGGPGGFSFEASGPGNFFFQFG
notes: DnaJC7 residues 380-494, C-terminal J domain; also called J domain_(380-494)
**Q.** For B6, which Kd [4] is on record?
**A.** 8200 nM

**Q.** And the Kd [6]?
**A.** 28200 nM

B7: DnaJC7 TPR1 domain (TPR1 20-156) (domain or fragment, UniProt Q99615 20-156, looked up)
chain: DDQEAKREAETFKEQGNAYYAKKDYNEAYNYYTKAIDMCPKNASYYGNRAATLMMLGRFREALGDAQQSVRLDDSFVRGHLREGKCHLSLGNAMAACRSFQRALELDHKNAQAQQEFKNANAVMEYEKIAETDFEKR
notes: DnaJC7 residues 20-156, TPR1 domain
**Q.** With B7 as the binder, how does the Kd [4] read?
**A.** 84 nM

**Q.** And the “fold increase in binding affinity relative to full-length DnaJC7” value [6]?
**A.** > 12 fold

B8: DnaJC7 TPR2b domain (TPR2b 255-370) (domain or fragment, UniProt Q99615 255-370, looked up)
chain: ALKAKKEDGNKAFKEGNYKLAYELYTEALGIDPNNIKTNAKLYCNRGTVNSKLRKLDDAIEDCTNAVKLDDTYIKAYLRRAQCYMDTEQYEEAVRDYEKVYQTEKTKEHKQLLKNA
notes: also called TPR2b_(253-370)
**Q.** Which results are given for B8?
**A.** Kd [4]: 75 nM; fold increase in binding affinity relative to full-length DnaJC7 [6]: > 12 fold

B9: DnaJC7 TPR2a domain (TPR2a 141-270) (domain or fragment, UniProt Q99615 141-270, looked up)
chain: AVMEYEKIAETDFEKRDFRKVVFCMDRALEFAPACHRFKILKAECLAMLGRYPEAQSVASDILRMDSTNADALYVRGLCLYYEDCIEKAVQFFVQALRMAPDHEKACIACRNAKALKAKKEDGNKAFKEG
notes: DnaJC7 residues 141-270, TPR2a domain
**Q.** With B9 as the binder, how does the “fold tighter binding than full-length DnaJC7” value [4] read?
**A.** > 2 fold

**Q.** What about the “fold increase in binding affinity relative to full-length DnaJC7” value [6] of the same binder?
**A.** > 12 fold
